Experimental findings from patent publication US20060269548A1 (published 2006) are described below.

For experiment [1], the target named is T1, human VEGFR-2 immunoglobulin fusion protein (chimeric receptor protein immobilized on the biosensor chip) (human, UniProt P35968 20-764, limits assumed).
T1 construct: also called hVEGFR-2; not shown: immunoglobulin fusion part
Kind of experiment: BIAcore 2000 biosensor, receptor-Ig on CM5 chip, ligand injected, 1:1 Langmuir global fit.

A further experiment has as its target T2, human VEGFR-3-Ig (human, UniProt P35916 25-775).
T2 construct: extracellular domain; also called hVEGFR-3; soluble VEGFR-3; not shown: immunoglobulin fusion part
T2 sequence (looked up): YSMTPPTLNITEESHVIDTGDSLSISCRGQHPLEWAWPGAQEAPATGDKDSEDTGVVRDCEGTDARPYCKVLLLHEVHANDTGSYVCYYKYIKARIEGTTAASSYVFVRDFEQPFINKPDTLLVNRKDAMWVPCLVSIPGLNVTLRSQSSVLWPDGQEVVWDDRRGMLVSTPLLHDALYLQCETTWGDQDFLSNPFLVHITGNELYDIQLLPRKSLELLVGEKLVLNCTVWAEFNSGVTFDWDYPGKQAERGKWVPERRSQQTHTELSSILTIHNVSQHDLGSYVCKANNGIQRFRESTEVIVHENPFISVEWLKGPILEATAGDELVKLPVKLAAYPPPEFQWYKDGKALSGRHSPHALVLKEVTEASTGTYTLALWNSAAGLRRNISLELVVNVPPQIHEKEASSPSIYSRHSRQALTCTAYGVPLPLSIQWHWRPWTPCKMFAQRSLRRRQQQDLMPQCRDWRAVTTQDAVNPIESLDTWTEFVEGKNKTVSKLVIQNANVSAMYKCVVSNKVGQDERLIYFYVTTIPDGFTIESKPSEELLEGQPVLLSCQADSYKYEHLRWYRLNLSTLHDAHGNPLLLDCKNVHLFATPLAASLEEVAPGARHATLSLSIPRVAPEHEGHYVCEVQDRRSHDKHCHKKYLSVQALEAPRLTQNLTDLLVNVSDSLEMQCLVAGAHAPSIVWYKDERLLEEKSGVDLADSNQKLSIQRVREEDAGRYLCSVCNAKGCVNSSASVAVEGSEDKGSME
The description is as above.

Experiment [2] has as its target T1, human VEGFR-2 immunoglobulin fusion …. Kind of experiment: BIAcore 2000 biosensor, receptor-Ig amine-coupled to CM5 chip, ligand injected. Background: In SPR one partner is held on a chip, and binding of the other changes the refractive index at the surface.

T1 sequence (P35968 20-764 limits assumed, change not shown): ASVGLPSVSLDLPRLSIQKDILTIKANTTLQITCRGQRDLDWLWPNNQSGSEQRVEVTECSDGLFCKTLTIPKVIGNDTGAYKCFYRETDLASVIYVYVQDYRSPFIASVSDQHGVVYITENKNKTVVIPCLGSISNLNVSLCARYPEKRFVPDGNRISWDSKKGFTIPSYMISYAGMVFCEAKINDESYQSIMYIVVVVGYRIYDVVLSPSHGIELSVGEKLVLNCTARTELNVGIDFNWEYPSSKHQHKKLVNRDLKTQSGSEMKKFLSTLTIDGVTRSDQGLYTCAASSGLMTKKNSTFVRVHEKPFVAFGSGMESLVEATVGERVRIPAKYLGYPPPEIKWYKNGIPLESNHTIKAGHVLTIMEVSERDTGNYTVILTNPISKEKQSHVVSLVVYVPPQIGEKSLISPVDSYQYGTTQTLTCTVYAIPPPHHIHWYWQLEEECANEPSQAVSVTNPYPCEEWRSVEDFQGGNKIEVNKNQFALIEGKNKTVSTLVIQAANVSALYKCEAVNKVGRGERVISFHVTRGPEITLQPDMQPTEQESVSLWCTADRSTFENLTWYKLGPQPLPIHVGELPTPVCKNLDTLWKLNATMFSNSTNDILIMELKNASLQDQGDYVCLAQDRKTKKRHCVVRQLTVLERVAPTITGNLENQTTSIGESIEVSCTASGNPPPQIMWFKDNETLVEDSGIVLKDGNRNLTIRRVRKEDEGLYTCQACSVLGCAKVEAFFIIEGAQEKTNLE
Protocol for human VEGFR-3-Ig: Chimeric receptor proteins were immobilized onto a carboxymethylated dextran surface. Growth factors were injected over the surface at a flow rate of 20 μl/min at the indicated concentrations.
Following immobilization, residual activated ester groups were blocked by treatment with 1 M ethanolamine hydrochloride pH 8.5 followed by washing with 10 mM diethylamine to remove non-covalently bound material. […] Samples were diluted in running buffer (10 mM HEPES pH 7.4, 150 mM NaCl, 3.4 mM EDTA, 0.005% Tween 20).

B1: recombinant human VEGF-C (Thr103 to Leu215) (ligand, UniProt P49767 103-215, looked up)
chain: TEETIKFAAAHYNTEILKSIDNEWRKTQCMPREVCIDVGKEFGVATNTFFKPPCVSVYRCGGCCNSEGLQCMNTSTSYLSKTLFEITVPLSQGPKPVTISFANHTSCRCMSKL
notes: range 103-215; Produced and purified as in Joukov et al. 1997; also called hVEGF-C; wild type VEGF-C
As to B1, in experiment [1], the dissociation constant Kd (as a rule, the constant that tells how readily two partners part at equilibrium) worked out at 22 nM; the koff (usually the first-order rate constant of dissociation) is 0.00123 s⁻¹; the kon (usually the second-order rate constant of association) was 55000 M⁻¹ s⁻¹. In the experiment with human VEGFR-3-Ig, this molecule displayed a Kd of 4.4 nM, a koff of 0.000605 s⁻¹ and a kon of 136000 M⁻¹ s⁻¹.

B2: recombinant human VEGF-C156S (Thr103 to Ile225) (ligand)
chain: TEETIKFAAAHYNTEILKSIDNEWRKTQCMPREVCIDVGKEFGVATNTFFKPPSVSVYRCGGCCNSEGLQCMNTSTSYLSKTLFEITVPLSQGPKPVTISFANHTSCRCMSKLDVYRQVHSII
notes: also called hVEGF-C156S; VEGF-C56S
In the experiment with human VEGFR-3-Ig, B2 displayed a Kd of 115 nM, a koff of 0.0004 s⁻¹ and a kon of 3500 M⁻¹ s⁻¹. In addition, the binding result in experiment [2] is reported as “no binding”.
